The experiment addresses T1, GST-tagged PAK1 (Y270-H545) (human, UniProt Q13153-1 270-545).
T1 construct: human PAK1 C terminus with the entire kinase domain, residues Y270-H545; vector pGEX4T1; also called GST-PAK1; GST-PAK1 kinase domain; source: E. coli BL21, purified; not shown: GST, N-terminal, kept
The experiment can be described thus: ITC; 25 μM GST-PAK1 in the cell titrated with 100 μM sortilin-cd or peptide in 28 steps of 10 μl at 34°C; 100 mM NaCl, 50 mM Tris-HCl pH 7.5 (pH 7.4 in the results); one set of sites model. Conditions: both partners purified. On the technique in general: In ITC the heat of successive injections is recorded.

T1 sequence (Q13153 270-545): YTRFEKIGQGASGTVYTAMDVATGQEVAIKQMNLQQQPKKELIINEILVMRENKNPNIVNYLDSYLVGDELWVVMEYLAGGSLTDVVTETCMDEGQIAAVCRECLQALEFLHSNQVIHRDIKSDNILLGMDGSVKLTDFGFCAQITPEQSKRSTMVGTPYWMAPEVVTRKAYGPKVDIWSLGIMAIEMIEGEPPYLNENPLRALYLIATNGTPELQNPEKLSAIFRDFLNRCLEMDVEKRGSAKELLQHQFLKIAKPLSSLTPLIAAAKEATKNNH

B1: complete sortilin cytoplasmic domain (K779-E831), GST tag removed (domain or fragment, human, UniProt Q99523-1 779-831, looked up)
chain: KKYVCGGRFLVHRYSVLQQHAEANGVDGVDALDTASHTNKSGYHDDSDEDLLE
notes: human sortilin cytoplasmic domain K779-E831 (K1-E53 of the cytoplasmic domain); vector pGEX4T1; also called sortilin-cd; wt sortilin-cd; source: E. coli BL21, purified, GST tag removed by thrombin cleavage; not shown: GST, N-terminal, cleaved
On to B1, for which the equilibrium dissociation constant (Kd) (as a rule, the constant that tells how readily two partners part at equilibrium) is about 2000 nM.

The values are drawn from publication PMC6965034, “PAK Kinases Target Sortilin and Modulate Its Sorting” (Molecular and Cellular Biology, 2019).
